Assay [1] addresses S100A4 (wild type, full-length) (UniProt P26447). As to the kind of experiment: fluorescence polarisation; as a1 but without Ca2+: EGTA added to 1 mM at the end of the titration. On the technique in general: Fluorescence polarisation rises when a labelled molecule tumbles more slowly, as on binding a larger partner.
The target is the same in assay [2]. In words: stopped-flow fluorescence; 0.1 μM F-M16^N mixed with S100A4, fluorescein emission intensity, with Ca2+; kobs against [S100A4]; dissociation also by displacement with excess M32.
Assay [3] has the same target. Described as above. The source holds these as a separate data set.
Assay [4] shares this target. As to the kind of experiment: fluorescence polarisation; fluorescein anisotropy; 0.1 μM F-M16^N titrated with S100A4; 20 mM NaCl, 10 mM Hepes, 1 mM Mg2+, 100 μM Ca2+, pH 7.5, 20 °C; apparent; 1:1 binding per S100A4 monomer assumed.
Assay [5] shares this target. In words: fluorescence polarisation + other: stopped-flow fluorescence; K2 with Ca2+: anisotropy value corrected for the 35% quench of fluorescein, identical with k-2/k2 of the stopped-flow records; per S100A4 monomer.
Assay [6] has the same target. As to the kind of experiment: fluorescence polarisation; competition: displacement of F-M16^N (5 μM) from S100A4 (5 μM) by increasing M32 or M16^N, with Ca2+; fit to a competitive single-site model with Kd of F-M16^N fixed at 2 μM.

Like-named read-outs stand apart in the source and are kept apart here. Bounds are passed on as bounds.

The koff is a measure of how fast the partners let go of each other. Read a low koff as a long-lived complex. One may read the kon as a measure of how fast the partners come together. Read a low kon as slower complex formation.

Chain of S100A4 (wild type, full-length) (P26447 whole entry): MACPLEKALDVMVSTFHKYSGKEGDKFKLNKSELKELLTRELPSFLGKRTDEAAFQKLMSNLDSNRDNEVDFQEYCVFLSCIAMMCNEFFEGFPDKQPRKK

“F-M16^N, fluorescein-labelled M16^N myosin peptide (NM-MHC IIA D1908-R1923) (from UniProt P35579-1 1908-1923)”: the Kd in assay [1] was over 300000 nM; in assay [4], 2000 nM; in assay [5], 1300 nM. In addition, the off-rate (koff) in assay [2] worked out at 6.2 s⁻¹; in assay [3], 7.7 s⁻¹. Besides, the on-rate constant (kon) in assay [2] is 4.9e+06 M⁻¹ s⁻¹.
“M16^N myosin peptide (NM-MHC IIA D1908-R1923) (from UniProt P35579-1 1908-1923)” showed a Kd in assay [6] of over 100000 nM.

Source of the values: publication PMC3025356, “Mechanism of the Ca^2+-Dependent Interaction between S100A4 and Tail Fragments of Nonmuscle Myosin Heavy Chain IIA” (Journal of Molecular Biology, 2011).
